Assay results published in patent publication US20240115719A1, “COMPOUND OR SALT THEREOF, AND ANTIBODY OBTAINED BY USING THE SAME” (priority 2021, published 2024).

Experiment: Stability test of ADC mimic in rat plasma (eliminated fluorescent molecules by HPLC/fluorescence detection)
Type: in vitro ADME
Settings: ADC mimic 0.1 mg/mL, 37° C. for 4 days vs -80° C. (Day 0 = 100%)
Method: Blood stability of various ADC mimics was assessed by analyzing the amounts of fluorescent molecules that were reduced from ADC mimic when ADC mimic was incubated in rat blood as described below.
Sterile filtration was performed on 700 μL of rat plasma (Charles River) after ADC mimic was added to it so as to be 0.1 mg/mL. The solution was dispensed into six Eppen tubes in 50 μL portions. Three of the six samples were stored in an incubator set at 37° C. for 4 days. The remaining three were also stored in a −80° C. freezer for 4 days. 100 μL of acetonitrile was added to each sample, and the mixture was vortexed and centrifuged to obtain a precipitate. The resulting supernatant was collected and analyzed by HPLC.
The determination was made using a liquid chromatography/fluorescence detection method to determine the amount of fluorescence molecules that had eliminated from ADC mimic.
A lower rate of increase indicates higher stability in plasma.
Increase in fluorescence intensity of fluorescent molecules eliminated from Example ADC mimic=[(Day=4 fluorescence intensity)−(Day=0 fluorescence intensity)].
Increase in fluorescence intensity of fluorescent molecules eliminated from Control ADC mimic=[(Day=4 fluorescence intensity)−(Day=0 fluorescence intensity)].
Carboxyrhodamine 110-PEG4-DBCO was separately used to calculate the colleration between area-area of fluorescent intensity and concentration for HPLC. An increase in the fluorescent intensity of the respective ADC mimic was converted into a concentration by using the calculation equation. When the concentration of Day 0 was taken as 100%, the percentage of the concentration of the above increase was calculated as the elimination rate.

Q: With CCNC(=O)CC[C@H](NC(=O)CCCCN=[N+]=[N-])C(=O)NOC [compound 102] as the molecule, how does the “Elimination rate of fluorescence molecule at Day = 4” value (“Elimination rate” for short) read?
A: <3%

Q: For CCCNC(=O)CC[C@H](NC(=O)CCCCN=[N+]=[N-])C(=O)NOC [compound 101], which “Elimination rate” value is on record?
A: <3%

Q: With CCCNC(=O)C[C@H](NC(=O)COCCOCCOCCN=[N+]=[N-])C(=O)NO [compound 107] as the molecule, how does the “Elimination rate” value read?
A: 20%

Q: For CCCNC(=O)c1cc(N=[N+]=[N-])cc(C(=O)NO)c1 [compound 93], which “Elimination rate” value is on record?
A: <3%

Q: With CCCNC(=O)CC[C@H](NC(=O)CCCCN=[N+]=[N-])C(=O)NO [compound 96] as the molecule, how does the “Elimination rate” value read?
A: <3%

Q: Which “Elimination rate” value does the source give for CCCNC(=O)C[C@H](NC(=O)CCCCN=[N+]=[N-])C(=O)NO [compound 111] here?
A: 21%
